Legend:
[1] = Repeated-dose study in female athymic nude mice: body weight, food intake, rearing, blood glucose; type: in vivo
Procedure: Female athymic nude mice (Cr1:NU/NU-nuBR, Charles River Laboratories, Wilmington, Mass.) were housed 4-5 per cage. Mice were given autoclaved food (Lab Diet #5001, PMI Feeds Inc., St. Louis, Mo.) and water ad libitum. All animal use in this study was conducted in compliance with approved institutional animal care and use protocols, and according to NIH guidelines (Guide for the Care and Use of Laboratory Animals, NIH publication no. 86-23, 1985).
In one assay, mice were injected intraperitoneally (i.p.) with FR1-H7 at 0.19, 1.9, and 19 mg/kg body weight (n=5 per group). In another assay, mice were injected subcutaneously (s.c.) with the antibody, at 0.4, 4, and 40 mg/kg body weight. In control arms, mice were treated with saline i.p. or s.c. In addition, one group of mice was left untreated (n=4). All treatments were given at a volume of 10 μl/g body weight in Saline. Treatments were started on a Wednesday (Day 0) with additional treatments on the following Friday, Monday, Wednesday, and Friday. After this 9-day treatment period mice received no additional treatments.
Alternatively, female athymic nude mice were injected (i.p.) with saline, 2 mg/kg, or 20 mg/kg FR1-A1 on a Monday (Day 0) and Wednesday. Body weights were measured before the first injection, and on Day 2 and Day 5. Food intake per group was measured 2 days after the first injection.
The body weights of all animals were measured 3 times/week. Food consumption, behavior, and serum glucose were evaluated as follows. Food Intake Measurement: Prior to the treatment on Day 2 mice were placed in a new cage and the weight of the food container in the cage top was weighed. Prior to the treatment on Day 5 the weight of the food container was measured again. The difference in the Day 2 to Day 5 food container weight was divided by the number of mice per cage and the number of days between the measurements to give a food intake per mouse per 24 hrs. Activity Measurement: On Day 12, 3 days after the final treatment, mice were placed individually into a new cage and the number of rearings was counted over a 1 min period. Blood Glucose Measurement On Day 16, 7 days after the final treatment, non-fasted blood glucose was measured in blood collected from the tip of the tail using an Ascensia Elite XL blood glucose meter (glucose oxidase method, Bayer, Pittsburg, Pa.).

[2] = Body weight, food intake and adipose tissue in db/db mice; type: in vivo; details: 4 mg/kg s.c.
Procedure: The db/db 7 week old mice were injected subcutaneously with 4 mg/kg antibody on a Monday, Wednesday, and Friday schedule with body weights being measured before each injection and on day 7. Food intake was monitored as well on days 1, 2, 3, 4, and 7. The db/db animals were sacrificed on day 7 and their intrascapular brown fat, epididymal white adipose tissue, and inguinal subcutaneous white adipose tissue were sampled and weighed.

[3] = Body weight in C57 black mice; type: in vivo; details: after 4 treatments
Procedure: The antibodies weight-reducing effects on other strains of mice, C57 black mice and db/db mice were tested (The Jackson Laboratory, Bar Harbor, Me.). The C57 mice were injected with 0.8 mg/kg, 4 mg/kg, and 40 mg/kg antibody and saline on a Monday, Wednesday, Friday, and following Monday rotation schedule with body weights being measured before each injection and on day 9.

FGFR-3b = target: T1, FGFR-3b (Homo sapiens, UniProt P22607); assay: BiaCore binding kinetics; details: BiaCore kinetic analysis
T1 construct: purchased R&D Systems

FGFR-1(IIIc) = FGFR-1(IIIc) (Homo sapiens, UniProt P11362); assay: Cell-based blocking assay (125I-FGF-2 binding to FGFR-1(IIIc) expressing L6 cells); parameters: expressed in transfected cells; host or cells: L6 (ATCC), pBABE retroviral vector; details: at 200 nM antibody
Procedure: An FGFR-1(IIIc) expressing cell line was constructed by retro-viral transfecting L6 (ATCC, Manassas, Va.) using a pBABE vector that has a puromycin resistant gene (Invitrogen). Transfected cells were cultured in 10% FBS, DMEM (Invitrogen) in 6-well tissue culture plates until reaching confluency, Before the blocking experiment, cells were serum starved for 8-24 hrs at 37° C. in DMEM medium that contains 0.1% FBS and 5 μg/ml heparin. Before the addition of any reagents, plates were put on ice for 1 hr to minimize receptor internalization. For binding experiment, iodinated recombinant FGF-2 was added at various concentrations to the wells of the plates. For blocking experiments, serially diluted FR1-H7 antibody was added and incubated with the cells on ice for 1 hr before iodinated recombinant FGF-2 was added to each well to a final concentration of 15 ng/ml. Binding was for 1 hr at 0-4° C., after which time the solutions were aspirated and the plates were washed 5 times with ice-cold PBS. Cells were lyzed with 0.5 ml ice-cold cell lysis buffer for 30 minutes. Radioactivity of the cell lysates was detected using a Wizard 1470 automatic gamma counter (Turku, Finland). Non-specific interaction was determined in a binding experiment in which iodinated FGF-2 was incubated with the cells in presence of 200 fold excess of cold ligand.

human adipocytes = assay: Adipocyte proliferation assay (3H-thymidine); type: cell-based; details: 15 ng/ml FGF-2, 60 hrs
Procedure: Two-week-old (after induced differentiation) grade 2 human adipocytes were obtained from Zen-Bio Inc. (Research Triangle, N.C.), and were maintained in the shipping media in a 96-well tissue culture plate. To evaluate the effects of FGF-2 on the proliferation of adipocytes, recombinant FGF-2 (R&D systems) was serially diluted and added to the wells of the plate. The cells were allowed to grow in the incubator for 60 hrs, before the level of ^3H-thymidine incorporation was determined. To evaluate the effects of FR1-H7 on adipocytes proliferation, the antibody was serially diluted and added to the cells before addition of recombinant FGF-2 to a final concentration of 15 ng/ml. ^3H-thymidine incorporation was determined after 60 hrs of incubation.

FGFR-1c = target: T2, FGFR-1c (Homo sapiens, UniProt P11362); assay: BiaCore binding kinetics; details: BiaCore biosensor; read-out: Binding Kinetic (Kd), FGFR-1c
T2 construct: purchased R&D Systems

FGFR-3c = target: T3, FGFR-3c (Homo sapiens, UniProt P22607); assay: BiaCore binding kinetics; details: BiaCore kinetic analysis
T3 construct: purchased R&D Systems
T3 sequence (P22607 23-806): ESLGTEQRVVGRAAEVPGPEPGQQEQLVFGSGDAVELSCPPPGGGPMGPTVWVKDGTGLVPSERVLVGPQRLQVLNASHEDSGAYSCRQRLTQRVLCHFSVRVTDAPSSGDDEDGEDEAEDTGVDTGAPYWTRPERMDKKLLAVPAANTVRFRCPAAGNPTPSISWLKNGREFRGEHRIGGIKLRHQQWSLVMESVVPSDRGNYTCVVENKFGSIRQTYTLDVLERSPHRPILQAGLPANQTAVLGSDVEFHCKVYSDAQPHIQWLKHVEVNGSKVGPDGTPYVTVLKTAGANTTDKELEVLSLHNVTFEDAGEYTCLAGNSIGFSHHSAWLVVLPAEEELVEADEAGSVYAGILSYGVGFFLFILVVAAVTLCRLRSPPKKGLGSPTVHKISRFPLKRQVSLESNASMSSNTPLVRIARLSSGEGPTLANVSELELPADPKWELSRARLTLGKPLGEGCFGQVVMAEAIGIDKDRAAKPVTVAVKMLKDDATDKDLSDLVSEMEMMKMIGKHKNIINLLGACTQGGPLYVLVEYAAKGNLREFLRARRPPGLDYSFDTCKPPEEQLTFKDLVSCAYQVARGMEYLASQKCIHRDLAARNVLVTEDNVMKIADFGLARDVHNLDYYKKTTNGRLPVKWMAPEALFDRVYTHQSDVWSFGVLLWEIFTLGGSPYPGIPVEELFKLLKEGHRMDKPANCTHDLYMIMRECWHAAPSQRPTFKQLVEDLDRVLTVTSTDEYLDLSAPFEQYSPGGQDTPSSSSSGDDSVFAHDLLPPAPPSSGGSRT

T1 sequence (P22607 23-808 isoform P22607-2 limits assumed): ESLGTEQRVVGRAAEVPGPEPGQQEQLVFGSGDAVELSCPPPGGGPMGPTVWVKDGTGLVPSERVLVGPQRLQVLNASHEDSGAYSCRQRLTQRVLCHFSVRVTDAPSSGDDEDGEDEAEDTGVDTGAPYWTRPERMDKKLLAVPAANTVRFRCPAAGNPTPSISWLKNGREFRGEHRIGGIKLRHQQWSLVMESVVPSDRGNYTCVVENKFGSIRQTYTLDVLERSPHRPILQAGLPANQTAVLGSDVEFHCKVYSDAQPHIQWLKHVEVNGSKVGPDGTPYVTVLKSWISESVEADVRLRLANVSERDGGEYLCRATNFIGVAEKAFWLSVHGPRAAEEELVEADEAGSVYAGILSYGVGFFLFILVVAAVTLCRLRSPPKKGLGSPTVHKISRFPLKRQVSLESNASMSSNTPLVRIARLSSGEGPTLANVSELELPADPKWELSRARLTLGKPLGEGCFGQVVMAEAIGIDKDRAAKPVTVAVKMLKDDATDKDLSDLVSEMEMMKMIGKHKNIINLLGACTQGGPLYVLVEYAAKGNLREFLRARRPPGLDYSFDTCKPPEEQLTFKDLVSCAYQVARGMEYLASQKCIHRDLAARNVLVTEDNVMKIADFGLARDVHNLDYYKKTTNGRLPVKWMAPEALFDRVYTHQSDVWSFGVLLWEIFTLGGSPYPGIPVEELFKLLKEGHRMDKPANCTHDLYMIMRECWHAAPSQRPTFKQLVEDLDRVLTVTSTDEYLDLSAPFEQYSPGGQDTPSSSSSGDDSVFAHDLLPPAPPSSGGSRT
Sequence of FGFR-1(IIIc) (P11362 22-822): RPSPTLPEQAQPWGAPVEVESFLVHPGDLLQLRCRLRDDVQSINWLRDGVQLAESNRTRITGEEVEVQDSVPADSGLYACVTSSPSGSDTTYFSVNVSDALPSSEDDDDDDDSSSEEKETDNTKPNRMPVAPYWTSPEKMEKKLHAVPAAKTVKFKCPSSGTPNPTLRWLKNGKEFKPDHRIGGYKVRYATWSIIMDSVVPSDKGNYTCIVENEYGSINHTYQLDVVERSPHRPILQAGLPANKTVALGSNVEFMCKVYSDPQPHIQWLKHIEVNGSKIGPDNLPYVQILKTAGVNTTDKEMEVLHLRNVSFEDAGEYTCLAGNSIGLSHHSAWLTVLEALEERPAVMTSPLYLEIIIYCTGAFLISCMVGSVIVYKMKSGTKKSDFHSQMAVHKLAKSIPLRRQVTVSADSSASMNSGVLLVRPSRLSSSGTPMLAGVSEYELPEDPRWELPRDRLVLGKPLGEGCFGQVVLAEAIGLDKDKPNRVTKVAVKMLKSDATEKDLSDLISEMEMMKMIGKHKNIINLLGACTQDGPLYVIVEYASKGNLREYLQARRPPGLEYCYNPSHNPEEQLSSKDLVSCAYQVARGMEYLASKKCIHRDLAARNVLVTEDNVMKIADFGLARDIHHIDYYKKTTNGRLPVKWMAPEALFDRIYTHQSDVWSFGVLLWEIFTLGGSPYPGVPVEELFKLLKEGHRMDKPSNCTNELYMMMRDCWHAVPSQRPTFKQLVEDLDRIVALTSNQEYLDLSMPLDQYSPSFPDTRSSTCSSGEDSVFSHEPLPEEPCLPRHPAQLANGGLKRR
T2 sequence (P11362 22-822): as above

B1: FR1-H7: human monoclonal antibody from phage Fab library, specific for FGFR-1(IIIb) and/or FGFR-1(IIIc), and/or FGFR-4(IIIc); VH/VL SEQ ID NOS:7, 8 (antibody, listed as Homo sapiens)
VH: MAEVQLVQSGAEVKKPGASVKVSCKVSGYTFTDYYMHWVQQAPGKGLEWMGLVDPEDGETIYAEKFQGRVTITADTSTDTAYMELSSLRSEDTAVYYCARDDYMDVWGKGTLVTVSSASTKGP
VL: LETTLTQSPDTLSLSPGEGATLSCRASQSVSGSALAWYQQKPGQAPRLLIYDASSRATGVPDRFSGSGSGADFSLTISRLEPEDFAVYSCQQYGSSPLTFGPGTKVDVKRTVAAPSVFIFPPSDEQLKSGTASVVCLLNNFYPREAKVQWKVD
moderate weight loss continued one week after treatment was stopped ([1]; 1.9 mg/kg): ~0.5 g | time to complete weight recovery after treatment was stopped ([1]; 1.9 mg/kg): 25 days | weight loss of the total body weight ([1]; 1.9 mg/kg i.p., within the first 3 treatments): ~20% | lagging time of first significant weight gain after stop of treatments ([1]; 4 mg/kg s.c.): 14 days | unusual weight loss of the total body weight, one animal euthanized ([1]; 19 mg/kg group): ~50% | lagging time of first significant weight gain after stop of treatments ([1]; 19 mg/kg i.p.): 24 days | reduction of non-fasting blood glucose as fraction of the normal glucose level ([1]; 19 mg/kg i.p. and 40 mg/kg s.c. groups, one week after end of treatment): ⅓ | lagging time of first significant weight gain after stop of treatments ([1]; 40 mg/kg s.c.): 19 days | exploratory behavior (rearings per min in a novel environment) ([1]; Day 12): not significantly altered | maximal weight loss as fraction of the averaged body weight of the controls ([1]; dosage higher than 4 mg/kg): ⅓ | reduction of non-fasting food intake ([1]; groups that lost weight, between second and third treatment): approximately 35% | body weight change ([1]; two lowest dosages 0.19 and 0.4 mg/kg): slight weight gains | food intakes ([2]; 7-day period): gradual reduction | weight reduction of the total body weight ([2]; Day 7): approximately 10% | weight of intrascapular brown fat tissue ([2]; day 7): significant reduction | weights of epididymal white adipose tissue and inguinal subcutaneous white adipose tissue ([2]; day 7): changed little | weight reduction compared to the starting weights ([3]; 0.8 mg/kg): approximately 5% | weight reduction compared to the starting weights ([3]; 4 mg/kg): ~16% | weight reduction compared to the starting weights ([3]; 40 mg/kg): ~16% | Kd (FGFR-3b): > 1000 nM | blocking of specific 125I-FGF-2 binding to the cells (FGFR-1(IIIc)): near completion | FGF-2-stimulated proliferation of adipocytes (human adipocytes): inhibited the FGF-2-stimulated proliferation of adipocytes in a dose dependant manner | Kd (FGFR-1c): 0.04 nM | Kd (FGFR-3c): > 1000 nM

Source: US8263074B2, “Fibroblast growth factor receptor-1 inhibitors and methods of treatment thereof” (ImClone LLC, priority 2003, dated 2012)
